# Results as given in the supplement of paper PMC5998384.
# Legend:
# HeLa Kyoto [1] = assay: solubility in G1/S (NP-40 vs SDS abundance) (log2 ratio); higher = more soluble; details: cell cycle stage: G1/S
# HeLa Kyoto [2] = assay: melting temperature (median over replicates), in situ; higher = more thermally stable
# HeLa Kyoto [3] = assay: solubility change mitosis vs G1/S (difference of NP-40 vs SDS log2 ratios) (log2 ratio difference); higher = more soluble in mitosis
# HeLa Kyoto [4] = assay: thermal stability score vs G1/S (z-score of summed log2 fold changes over temperatures); higher = more thermally stable than in G1/S
# [5] = cell cycle stage: early G1 (4.5 h after nocodazole release)
# 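For melting temperature (median over replicates), in situ in this document: HeLa Kyoto cells synchronized by double thymidine or nocodazole block, proteins quantified by TMT10plex mass spectrometry, three independent biological replicates.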
# 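For solubility change mitosis vs G1/S (difference of NP-40 vs SDS log2 ratios) in this document: synchronized HeLa Kyoto cells (double thymidine block for G1/S, nocodazole release for mitosis), protein amounts in NP-40 versus SDS lysates quantified by mass spectrometry, three biological replicates.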
# 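For solubility in G1/S (NP-40 vs SDS abundance) in this document: HeLa Kyoto cells arrested at G1/S by double thymidine block, proteins quantified by TMT10plex mass spectrometry in mild NP-40 versus SDS extracts, three biological replicates.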
# 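For thermal stability score vs G1/S (z-score of summed log2 fold changes over temperatures) in this document: synchronized HeLa Kyoto cells, proteins quantified by TMT10plex mass spectrometry, three biological replicates, mitosis taken 0.5 h after nocodazole release, G1/S directly after double thymidine block.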
# Chain of MMTAG2 (chain, as listed by the source): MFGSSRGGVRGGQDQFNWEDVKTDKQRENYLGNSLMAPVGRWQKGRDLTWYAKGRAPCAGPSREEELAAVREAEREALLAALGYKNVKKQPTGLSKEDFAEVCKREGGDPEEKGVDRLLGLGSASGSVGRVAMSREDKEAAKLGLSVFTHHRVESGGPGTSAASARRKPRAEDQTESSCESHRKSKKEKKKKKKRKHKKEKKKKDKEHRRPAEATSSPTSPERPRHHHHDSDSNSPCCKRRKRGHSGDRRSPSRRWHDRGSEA
Substance,solubility in G1/S (log2) (HeLa Kyoto [1]),melting temperature (HeLa Kyoto [2]; cell cycle stage: G1/S) [°C],melting temperature (HeLa Kyoto [2]; cell cycle stage: mitosis) [°C],solubility change mitosis (log2) (HeLa Kyoto [3]),thermal stability score (HeLa Kyoto [4]; [5]),thermal stability score (HeLa Kyoto [4]; cell cycle stage: mitosis)
MMHFKSGLELTELQNMTVPEDDNISNDSNDFTEVENGQINSKFISDRESRRSLTNSHLEKKKCDEYIPGTTSLGMSVFNLSNAIMGSGILGLAFALANTGILLFLVLLTSVTLLSIYSINLLLICSKETGCMVYEKLGEQVFGTTGKFVIFGATSLQNTGAMLSYLFIVKNELPSAIKFLMGKEETFSAWYVDGRVLVVIVTFGIILPLCLLKNLGYLGYTSGFSLSCMVFFLIVVIYKKFQIPCIVPELNSTISANSTNADTCTPKYVTFNSKTVYALPTIAFAFVCHPSVLPIYSELKDRSQKKMQMVSNISFFAMFVMYFLTAIFGYLTFYDNVQSDLLHKYQSKDDILILTVRLAVIVAVILTVPVLFFTVRSSLFELAKKTKFNLCRHTVVTCILLVVINLLVIFIPSMKDIFGVVGVTSANMLIFILPSSLYLKITDQDGDKGTQRIWAALFLGLGVLFSLVSIPLVIYDWACSSSSDEGH [SLC38A1],-0.379,57.8,59.4,-0.24,-1.68,-3.89
MMIHGFQSSHRDFCFGPWKLTASKTHIMKSADVEKLADELHMPSLPEMMFGDNVLRIQHGSGFGIEFNATDALRCVNNYQGMLKVACAEEWQESRTEGEHSKEVIKPYDWTYTTDYKGTLLGESLKLKVVPTTDHIDTEKLKAREQIKFFEEVLLFEDELHDHGVSSLSVKIRVMPSSFFLLLRFFLRIDGVLIRMNDTRLYHEADKTYMLREYTSRESKISSLMHVPPSLFTEPNEISQYLPIKEAVCEKLIFPERIDPNPADSQKSTQVE [TIPRL],0.0228,50.8,51.3,-0.0696,-0.544,-1.01
MMKFRFRRQGADPQREKLKQELFAFNKTVEHGFPNQPSALAFDPELRIMAIGTRSGAVKIYGAPGVEFTGLHRDAATVTQMHFLTGQGRLLSLLDDSSLHLWEIVHHNGCAHLEEALSFQLPSRPGFDGASAPLSLTRVTVVLLVAASDIAALGTEGSSVFFLDVTTLTLLEGQTLAPGEVLRSVPDDYRCGKALGPVESLQGHLRDPTKILIGYSRGLLVIWNQASQCVDHIFLGNQQLESLCWGRDSSTVVSSHSDGSYAVWSVDAGSFPTLQPTVATTPYGPFPCKAINKILWRNCESGGHFIIFSGGMPRASYGDRHCVSVLRAETLVTLDFTSRIIDFFTVHSTRPEDEFDDPQALAVLLEEELVVLDLQTPGWPAVPAPYLAPLHSSAITCSAHVASVPAKLWARIVSAGEQQSPQPVSSALSWPITGGRNLAQEPSQRGLLLTGHEDGTVRFWDASGVALRPLYKLSTAGLFQTDCEHADSLAQAAEDDWPPFRKVGCFDPYSDDPRLGVQKVALCKYTAQMVVAGTAGQVLVLELSDVPVEQAVSVAIIDLLQDREGFTWKGHERLSPRTGPLPWPAGFQPRVLVQCLPPAAVTAVTLHTEWSLVAFGTSHGFGLFDYQRKSPVLARCTLHPNDSLAMEGPLSRVKSLKKSLRQSFRRIRKSRVSGKKRAANASSKLQEANAQLAEQACPHDVEMTPVQRRIEPRSADDSLSGVVRCLYFADTFLRDGAHHGPTMWAGTNSGSVFAYALEVPAAAVGGEKRPEQAVEAVLGKEVQLMHRAPVVAIAVLDGRGRPLPEPYEASRDLAQAPDMQGGHAVLIASEEQFKVFTLPKVSAKTKFKLTAHEGCRVRKVALATFASVACEDYAETCLACLTNLGDVHVFSVPGLRPQVHYSCIRKEDISGIASCVFTRHGQGFYLISPSEFERFSLSARNITEPLCSLDINWPRDATQASYRIRESPKLSQANGTPSILLAPQSLDGSPDPAHSMGPDTPEPPEAALSPMSIDSATSADTTLDTTGDVTVEDVKDFLGSSEESEKNLRNLAEDEAHACAILIK [LLGL1],0.0124,50.9,49.7,-0.209,-0.436,-0.753
MMLGPEGGEGFVVKLRGLPWSCSVEDVQNFLSDCTIHDGAAGVHFIYTREGRQSGEAFVELGSEDDVKMALKKDRESMGHRYIEVFKSHRTEMDWVLKHSGPNSADSANDGFVRLRGLPFGCTKEEIVQFFSGLEIVPNGITLPVDPEGKITGEAFVQFASQELAEKALGKHKERIGHRYIEVFKSSQEEVRSYSDPPLKFMSVQRPGPYDRPGTARRYIGIVKQAGLERMRPGAYSTGYGGYEEYSGLSDGYGFTTDLFGRDLSYCLSGMYDHRYGDSEFTVQSTTGHCVHMRGLPYKATENDIYNFFSPLNPVRVHIEIGPDGRVTGEADVEFATHEEAVAAMSKDRANMQHRYIELFLNSTTGASNGAYSSQVMQGMGVSAAQATYSGLESQSVSGCYGAGYSGQNSMGGYD [HNRNPF],-0.0868,48,49,-0.0538,3.58,9.17
MMLSTEGREGFVVKVRGLPWSCSADEVMRFFSDCKIQNGTSGIRFIYTREGRPSGEAFVELESEEEVKLALKKDRETMGHRYVEVFKSNSVEMDWVLKHTGPNSPDTANDGFVRLRGLPFGCSKEEIVQFFSGLEIVPNGMTLPVDFQGRSTGEAFVQFASQEIAEKALKKHKERIGHRYIEIFKSSRAEVRTHYDPPRKLMAMQRPGPYDRPGAGRGYNSIGRGAGFERMRRGAYGGGYGGYDDYGGYNDGYGFGSDRFGRDLNYCFSGMSDHRYGDGGSSFQSTTGHCVHMRGLPYRATENDIYNFFSPLNPMRVHIEIGPDGRVTGEADVEFATHEDAVAAMAKDKANMQHRYVELFLNSTAGTSGGAYDHSYVELFLNSTAGASGGAYGSQMMGGMGLSNQSSYGGPASQQLSGGYGGGYGGQSSMSGYDQVLQENSSDYQSNLA [HNRNPH2],-0.272,45,45.2,-0.0078,1.83,2.38
MMP15,-0.181,54.4,55.3,-0.0164,-0.0989,-0.65
MMQGEAHPSASLIDRTIKMRKETEARKVVLAWGLLNVSMAGMIYTEMTGKLISSYYNVTYWPLWYIELALASLFSLNALFDFWRYFKYTVAPTSLVVSPGQQTLLGLKTAVVQTTPPHDLAATQIPPAPPSPSIQGQSVLSYSPSRSPSTSPKFTTSCMTGYSPQLQGLSSGGSGSYSPGVTYSPVSGYNKLASFSPSPPSPYPTTVGPVESSGLRSRYRSSPTVYNSPTDKEDYMTDLRTLDTFLRSEEEKQHRVKLGSPDSTSPSSSPTFWNYSRSMGDYAQTLKKFQYQLACRSQAPCANKDEADLSSKQAAEEVWARVAMNRQLLDHMDSWTAKFRNWINETILVPLVQEIESVSTQMRRMGCPELQIGEASITSLKQAALVKAPLIPTLNTIVQYLDLTPNQEYLFERIKELSQGGCMSSFRWNRGGDFKGRKWDTDLPTDSAIIMHVFCTYLDSRLPPHPKYPDGKTFTSQHFVQTPNKPDVTNENVFCIYQSAINPPHYELIYQRHVYNLPKGRNNMFHTLLMFLYIIKTKESGMLGRVNLGLSGVNILWIFGE [TMEM209],0.161,52,53.2,-0.145,0.688,3.82
MMSDASDMLAAALEQMDGIIAGSKALEYSNGIFDCQSPTSPFMGSLRALHLVEDLRGLLEMMETDEKEGLRCQIPDSTAETLVEWLQSQMTNGHLPGNGDVYQERLARLENDKESLVLQVSVLTDQVEAQGEKIRDLEFCLEEHREKVNATEEMLQQELLSRTSLETQKLDLMAEISNLKLKLTAVEKDRLDYEDKFRDTEGLIQEINDLRLKVSEMDSERLQYEKKLKSTKSLMAKLSSMKIKVGQMQYEKQRMEQKWESLKDELASLKEQLEEKESEVKRLQEKLVCKMKGEGVEIVDRDIEVQKMKKAVESLMAANEEKDRKIEDLRQCLNRYKKMQDTVVLAQGKDGEYEELLNSSSISSLLDAQGFSDLEKSPSPTPVMGSPSCDPFNTSVPEEFHTTILQVSIPSLLPATVSMETSEKSKLTPKPETSFEENDGNIILGATVDTQLCDKLLTSSLQKSSSLGNLKKETSDGEKETIQKTSEDRAPAESRPFGTLPPRPPGQDTSMDDNPFGTRKVRSSFGRGFFKIKSNKRTASAPNLAETEKETAEHLDLAGASSRPKDSQRNSPFQIPPPSPDSKKKSRGIMKLFGKLRRSQSTTFNPDDMSEPEFKRGGTRATAGPRLGWSRDLGQSNSDLDMPFAKWTKEQVCNWLMEQGLGSYLNSGKHWIASGQTLLQASQQDLEKELGIKHSLHRKKLQLALQALGSEEETNHGKLDFNWVTRWLDDIGLPQYKTQFDEGRVDGRMLHYMTVDDLLSLKVVSVLHHLSIKRAIQVLRINNFEPNCLRRRPSDENTIAPSEVQKWTNHRVMEWLRSVDLAEYAPNLRGSGVHGGLMVLEPRFNVETMAQLLNIPPNKTLLRRHLATHFNLLIGAEAQHQKRDAMELPDYVLLTATAKVKPKKLAFSNFGNLRKKKQEDGEEYVCPMELGQASGSASKKGFKPGLDMRLYEEDDLDRLEQMEDSEGTVRQIGAFSEGINNLTHMLKEDDMFKDFAARSPSASITDEDSNV [PPFIBP1],0.425,49.4,49,-0.0985,0.0729,0.352
MMSQSSGSGDGNDDEATTSKDGGFSSPSPSAAAAAQEVRSATDGNTSTTPPTSAKKRKLNSSSSSSSNSSNEREDFDSTSSSSSTPPLQPRDSASPSTSSFCLGVSVAASSHVPIQKKLRFEDTLEFVGFDAKMAEESSSSSSSSSPTAATSQQQQLKNKSILISSVASVHHANGLAKSSTTVSSFANSKPGSAKKLVIKNFKDKPKLPENYTDETWQKLKEAVEAIQNSTSIKYNLEELYQAVENLCSYKISANLYKQLRQICEDHIKAQIHQFREDSLDSVLFLKKIDRCWQNHCRQMIMIRSIFLFLDRTYVLQNSMLPSIWDMGLELFRAHIISDQKVQNKTIDGILLLIERERNGEAIDRSLLRSLLSMLSDLQIYQDSFEQRFLEETNRLYAAEGQKLMQEREVPEYLHHVNKRLEEEADRLITYLDQTTQKSLIATVEKQLLGEHLTAILQKGLNNLLDENRIQDLSLLYQLFSRVRGGVQVLLQQWIEYIKAFGSTIVINPEKDKTMVQELLDFKDKVDHIIDICFLKNEKFINAMKEAFETFINKRPNKPAELIAKYVDSKLRAGNKEATDEELEKMLDKIMIIFRFIYGKDVFEAFYKKDLAKRLLVGKSASVDAEKSMLSKLKHECGAAFTSKLEGMFKDMELSKDIMIQFKQYMQNQNVPGNIELTVNILTMGYWPTYVPMEVHLPPEMVKLQEIFKTFYLGKHSGRKLQWQSTLGHCVLKAEFKEGKKELQVSLFQTLVLLMFNEGEEFSLEEIKQATGIEDGELRRTLQSLACGKARVLAKNPKGKDIEDGDKFICNDDFKHKLFRIKINQIQMKETVEEQASTTERVFQDRQYQIDAAIVRIMKMRKTLSHNLLVSEVYNQLKFPVKPADLKKRIESLIDRDYMERDKENPNQYNYIA [CUL4B],0.0519,54.6,54.4,-0.261,-1.29,-1.57
MMTAG2,-1.03,53,51.3,0.48,-3.08,-5.63
